Earlier results, collected in publication PMC7460564.
Read-outs that look alike come from different tables or passages of the source.

How the values were obtained:
[1] = target: EGFR ECD (Homo sapiens) (UniProt P00533)
[2] = target: EGFR (Homo sapiens) (UniProt P00533)
[3] = target: EGFR ECD (Homo sapiens) (UniProt P00533); remark: listed apart in the source
[4] = target: HER2 (Homo sapiens) (UniProt P04626)

Substance	Kd [1] [nM]	Kd [2] [nM]	Kd [3] [nM]	Kd [4] [nM]
EGF (from UniProt P01133)	15			
PEPD (prolidase) (from UniProt P12955)		17.7	5300	7.3
